Measured values published in US20250270280A1.

Experiments:
[1] = biological target: PA/H2-D^b (influenza Polymerase Acidic peptide … presented by H2-D^b) (mouse; human)
[2] = biological target: PA4C/H2-D^b (PA peptide with cysteine at position 4 presented by H2-D^b) (mouse; human)
[3] = biological target: PA4C7A/H2-D^b (mouse; human)
[4] = biological target: PA4C7K/H2-D^b (mouse; human)
[5] = biological target: PA4C7L/H2-D^b (mouse; human)
[6] = biological target: PA/H2-D^b (influenza Polymerase Acidic peptide … presented by H2-D^b) (mouse; human); remark: listed apart in the source
[7] = biological target: PA4C/H2-D^b (PA peptide with cysteine at position 4 presented by H2-D^b) (mouse; human); remark: listed apart in the source
[8] = biological target: PA4C7A/H2-D^b (mouse; human); remark: listed apart in the source
[9] = biological target: PA4C7K/H2-D^b (mouse; human); remark: listed apart in the source
[10] = biological target: PA4C7L/H2-D^b (mouse; human); remark: listed apart in the source

**Q.** 6218 TCR expressed on cells was tested. Which tetramer MFI / TCRβ MFI, normalized to 6218 TCR-PA/H2-D^b [1] did it give?
**A.** 1

**Q.** And the tetramer MFI / TCRβ MFI, normalized to 6218 TCR-PA/H2-D^b [2]?
**A.** 1.03

**Q.** And the tetramer MFI / TCRβ MFI, normalized to 6218 TCR-PA/H2-D^b [3]?
**A.** 0.16

**Q.** And the tetramer MFI / TCRβ MFI, normalized to 6218 TCR-PA/H2-D^b [4]?
**A.** 0.33

**Q.** What about the tetramer MFI / TCRβ MFI, normalized to 6218 TCR-PA/H2-D^b [5] of the same substance?
**A.** 0.03

**Q.** And the IL-2 in supernatant (ELISA), 5KC T cells with CD8αβ and the TCR + DC2.4 cells + graded peptide: EC50 [panel PA] [6]?
**A.** 0.05 µM

**Q.** And the IL-2 in supernatant (ELISA), 5KC T cells with CD8αβ and the TCR + DC2.4 cells + graded peptide: EC50 [panel PA4C] [7]?
**A.** 0.049 µM

**Q.** What about the IL-2 in supernatant (ELISA), 5KC T cells with CD8αβ and the TCR + DC2.4 cells + graded peptide: EC50 [left graph] [8] of the same substance?
**A.** > 50 µM

**Q.** And the IL-2 in supernatant (ELISA), 5KC T cells with CD8αβ and the TCR + DC2.4 cells + graded peptide: EC50 [left graph] [9]?
**A.** > 50 µM

**Q.** What about the IL-2 in supernatant (ELISA), 5KC T cells with CD8αβ and the TCR + DC2.4 cells + graded peptide: EC50 [left graph] [10] of the same substance?
**A.** > 50 µM
